Two molecules from patent US20230333112A1 (published 2023) can be followed below.

The target in experiment [1] is T1, NKp30 coated on the ELISA plate (Example 14) (UniProt O14931 19-135).
T1 chain: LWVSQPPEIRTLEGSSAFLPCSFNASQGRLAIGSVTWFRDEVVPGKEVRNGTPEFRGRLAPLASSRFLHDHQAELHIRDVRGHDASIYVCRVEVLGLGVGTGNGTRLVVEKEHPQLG
Nature of the experiment: competition ELISA; blocking of B7-H6 binding to NKp30.

Experiment [2] addresses T1, NKp30 coated on the ELISA plate …. The experiment can be described thus: ELISA.

B1: BJM1042 (bispecific anti-TRBC1/NKp30 antibody) (bispecific antibody)
heavy: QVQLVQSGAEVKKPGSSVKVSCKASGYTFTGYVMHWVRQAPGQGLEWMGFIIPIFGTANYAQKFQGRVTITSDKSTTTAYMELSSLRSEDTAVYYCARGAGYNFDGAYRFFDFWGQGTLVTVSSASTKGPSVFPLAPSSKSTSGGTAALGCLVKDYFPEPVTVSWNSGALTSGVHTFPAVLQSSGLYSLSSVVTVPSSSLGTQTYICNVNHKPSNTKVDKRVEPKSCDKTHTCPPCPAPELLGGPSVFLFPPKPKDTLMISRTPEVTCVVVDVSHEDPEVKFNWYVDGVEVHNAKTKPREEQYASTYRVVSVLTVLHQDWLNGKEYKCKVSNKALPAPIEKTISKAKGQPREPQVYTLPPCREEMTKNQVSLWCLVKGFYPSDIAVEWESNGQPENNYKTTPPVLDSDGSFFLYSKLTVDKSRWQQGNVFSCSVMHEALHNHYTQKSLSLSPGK
light: DVVMTQSPLSLPVTLGQPASISCRSSQRLVHSNGNTYLHWYQQRPGQSPRLLIYRVSNRFPGVPDRFSGSGSGTDFTLKISRVEAEDVGVYFCSQSTHVPYTFGGGTKVEIKRTVAAPSVFIFPPSDEQLKSGTASVVCLLNNFYPREAKVQWKVDNALQSGNSQESVTEQDSKDSTYSLSSTLTLSKADYEKHKVYACEVTHQGLSSPVTKSFNRGEC
chain: EIQLLESGGGLVQPGGSLRLSCAVSGFSITTTGYHWNWVRQAPGKGLEWVGYIYSSGSTSYNPSLKSRFTISRDTSKNTFYLQMNSLRAEDTAVYYCARGDWHYFDYWGQGTMVTVSSGGGGSGGGGSGGGGSGGGGSDSVTTQSPLSLPVTLGQPASISCSGEKLSDKYVHWYQQRPGQSPRMLIYENDRRPSGVPDRFSGSNSGNDATLKISRVEAEDVGVYFCQFWDSTNSAVFGGGTKVEIKDKTHTCPPCPAPELLGGPSVFLFPPKPKDTLMISRTPEVTCVVVDVSHEDPEVKFNWYVDGVEVHNAKTKPREEQYASTYRVVSVLTVLHQDWLNGKEYKCKVSNKALPAPIEKTISKAKGQPREPQVCTLPPSREEMTKNQVSLSCAVKGFYPSDIAVEWESNGQPENNYKTTPPVLDSDGSFFLVSKLTVDKSRWQQGNVFSCSVMHEALHNHYTQKSLSLSPGK
For B1, the IC50 in experiment [1] came to 29.4 nM. This molecule had a Kd in experiment [2] of 0.578 nM.

B2: B7-H6 (ligand)
chain: DLKVEMMAGGTQITPLNDNVTIFCNIFYSQPLNITSMGITWFWKSLTFDKEVKVFEFFGDHQEAFRPGAIVSPWRLKSGDASLRLPGIQLEEAGEYRCEVVVTPLKAQGTVQLEVVASPASRLLLDQVGMKENEDKYMCESSGFYPEAINITWEKQTQKFPHPIEISEDVITGPTIKNMDGTFNVTSCLKLNSSQEDPGTVYQCVVRHASLHTPLRSNFTLTAARHSLSETEKTDNFS
As for B2, the Kd in experiment [2] turned out to be 6.56 nM.
